# Test results published in article PMC9352680, “A comprehensive thermodynamic model for RNA binding by the Saccharomyces cerevisiae Pumilio protein PUF4”.
# T1: PUF4 RNA-binding domain (Saccharomyces cerevisiae, UniProt P25339 537-888)
# T1 sequence: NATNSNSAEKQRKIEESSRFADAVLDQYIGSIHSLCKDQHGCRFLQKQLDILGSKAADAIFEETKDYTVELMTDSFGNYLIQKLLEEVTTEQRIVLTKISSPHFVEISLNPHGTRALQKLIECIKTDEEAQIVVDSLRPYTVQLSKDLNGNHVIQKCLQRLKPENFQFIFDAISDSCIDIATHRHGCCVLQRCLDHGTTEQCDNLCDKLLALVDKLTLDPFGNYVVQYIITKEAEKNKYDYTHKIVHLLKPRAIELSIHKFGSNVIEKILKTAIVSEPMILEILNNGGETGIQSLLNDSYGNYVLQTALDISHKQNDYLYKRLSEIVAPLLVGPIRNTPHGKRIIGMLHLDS
# Target: T1, PUF4 RNA-binding domain
# Experiment: Mg; RNA-MaP; 20 mM Na-HEPES pH 7.4, 30 mM KOAc, 0.75 mM MgCl2, 0.1% Tween-20, 5% glycerol, 0.1 mg/mL BSA, 2 mM DTT; 25 C; 0.0125-409.6 nM protein
# Conditions: tags: N-His6-TEV cleaved; C-SNAP kept, Cy3B-labelled; label: tethered on chip by stalled RNA polymerase
row,Binder,Kd [nM]
1,UCUCUUUUUGUAUAUACCUCUCUU (ssRNA) [Id_ii_S1_P3E.2_K3.1_C3.2_[C-2T]_H3.1_A3.1_F3.1_T3.2_[T9C]_[A10C]],12.1
2,UCUCUUAGUUUAUUAUCUCUU (ssRNA) [Ib_S1_P4E.1_K4.1_C4.1_H4.1_[T1A]_[A4T]_A4.1_F4.1_T4.1],> 2300
3,UCUCUUUUUGUAUAUAGGUCUCUU (ssRNA) [Id_ii_S1_P3E.2_K3.1_C3.2_[C-2T]_H3.1_A3.1_F3.1_T3.2_[T9G]_[A10G]],10.7
4,UCUCUUUUUGUAUAUAAGUCUCUU (ssRNA) [Id_ii_S1_P3E.2_K3.1_C3.2_[C-2T]_H3.1_A3.1_F3.1_T3.2_[T9A]_[A10G]],11.6
5,UCUCUUUUCAUAUUAUCUCUU (ssRNA) [Ib_S1_P4E.1_K4.1_C4.1_H4.1_[G2T]_[T3C]_A4.1_F4.1_T4.1],> 2300
6,UCUCUUGUUGUAUAUAUGUCUCUU (ssRNA) [Id_ii_S1_P3E.2_K3.1_C3.2_[C-2G]_H3.1_A3.1_F3.1_T3.2_[A10G]],8.99
7,UCUCUUUAUGUAUAUAGUUCUCUU (ssRNA) [Id_ii_S1_P3E.2_K3.1_C3.2_[C-2T]_[T-1A]_H3.1_A3.1_F3.1_T3.2_[T9G]_[A10T]],6.42
8,UCUCUUGUUGUAUAUAAAUCUCUU (ssRNA) [Id_ii_S1_P3E.2_K3.1_C3.2_[C-2G]_H3.1_A3.1_F3.1_T3.2_[T9A]],8.84
9,UCUCUUUAUGUAUAUAUUUCUCUU (ssRNA) [Id_ii_S1_P3E.2_K3.1_C3.2_[C-2T]_[T-1A]_H3.1_A3.1_F3.1_T3.2_[A10T]],9.19
10,UCUCUUUGUGUAUAUACCUCUCUU (ssRNA) [Id_ii_S1_P3E.2_K3.1_C3.2_[C-2T]_[T-1G]_H3.1_A3.1_F3.1_T3.2_[T9C]_[A10C]],23.4
11,UCUCUUUAUGUAUAUAUGUCUCUU (ssRNA) [Id_ii_S1_P3E.2_K3.1_C3.2_[C-2T]_[T-1A]_H3.1_A3.1_F3.1_T3.2_[A10G]],9.53
12,UCUCUUGUUGUAUAUAGUUCUCUU (ssRNA) [Id_ii_S1_P3E.2_K3.1_C3.2_[C-2G]_H3.1_A3.1_F3.1_T3.2_[T9G]_[A10T]],4.57
13,UCUCUUUUUGUAUAUAGUUCUCUU (ssRNA) [Id_ii_S1_P3E.2_K3.1_C3.2_[C-2T]_H3.1_A3.1_F3.1_T3.2_[T9G]_[A10T]],4.16
14,UCUCUUGCUGUAUAUAUUUCUCUU (ssRNA) [Id_ii_S1_P3E.2_K3.1_C3.2_[C-2G]_[T-1C]_H3.1_A3.1_F3.1_T3.2_[A10T]],12.9
15,UCUCUUGUUGUAUAUAUAUCUCUU (ssRNA) [Id_ii_S1_P3E.2_K3.1_C3.2_[C-2G]_H3.1_A3.1_F3.1_T3.2],5.16
16,UCUCUUUCUGUAUAUAGUUCUCUU (ssRNA) [Id_ii_S1_P3E.2_K3.1_C3.2_[C-2T]_[T-1C]_H3.1_A3.1_F3.1_T3.2_[T9G]_[A10T]],3.7
17,UCUCUUGCUGUAUAUAAUUCUCUU (ssRNA) [Id_ii_S1_P3E.2_K3.1_C3.2_[C-2G]_[T-1C]_H3.1_A3.1_F3.1_T3.2_[T9A]_[A10T]],12.4
18,UCUCUUGUUGUAUAUAAUUCUCUU (ssRNA) [Id_ii_S1_P3E.2_K3.1_C3.2_[C-2G]_H3.1_A3.1_F3.1_T3.2_[T9A]_[A10T]],9.55
19,UCUCUUUUUGUAUAUAACUCUCUU (ssRNA) [Id_ii_S1_P3E.2_K3.1_C3.2_[C-2T]_H3.1_A3.1_F3.1_T3.2_[T9A]_[A10C]],9.6
20,UCUCUUGCUGUAUAUAAAUCUCUU (ssRNA) [Id_ii_S1_P3E.2_K3.1_C3.2_[C-2G]_[T-1C]_H3.1_A3.1_F3.1_T3.2_[T9A]],15.5

row,Binder,Kd [nM]
1,UCUCUUUAUGUAUAUACCUCUCUU (ssRNA) [Id_ii_S1_P3E.2_K3.1_C3.2_[C-2T]_[T-1A]_H3.1_A3.1_F3.1_T3.2_[T9C]_[A10C]],15.5
2,UCUCUUUAUGUAUAUAACUCUCUU (ssRNA) [Id_ii_S1_P3E.2_K3.1_C3.2_[C-2T]_[T-1A]_H3.1_A3.1_F3.1_T3.2_[T9A]_[A10C]],13
3,UCUCUUGUUGUAUAUAUCUCUCUU (ssRNA) [Id_ii_S1_P3E.2_K3.1_C3.2_[C-2G]_H3.1_A3.1_F3.1_T3.2_[A10C]],8.36
4,UCUCUUUAUGUAUAUAGCUCUCUU (ssRNA) [Id_ii_S1_P3E.2_K3.1_C3.2_[C-2T]_[T-1A]_H3.1_A3.1_F3.1_T3.2_[T9G]_[A10C]],6.81
5,UCUCUUUCUGUAUAUAUCUCUCUU (ssRNA) [Id_ii_S1_P3E.2_K3.1_C3.2_[C-2T]_[T-1C]_H3.1_A3.1_F3.1_T3.2_[A10C]],5.38
6,UCUCUUGGUGUAUAUAGUUCUCUU (ssRNA) [Id_ii_S1_P3E.2_K3.1_C3.2_[C-2G]_[T-1G]_H3.1_A3.1_F3.1_T3.2_[T9G]_[A10T]],6.96
7,UCUCUUUCUGUAUAUACGUCUCUU (ssRNA) [Id_ii_S1_P3E.2_K3.1_C3.2_[C-2T]_[T-1C]_H3.1_A3.1_F3.1_T3.2_[T9C]_[A10G]],17.9
8,UCUCUUUAAAUAUUAUCUCUU (ssRNA) [Ib_S1_P4E.1_K4.1_C4.1_H4.1_[G2A]_[T3A]_A4.1_F4.1_T4.1],> 2300
9,UCUCUUUCUGUAUUAUCUCUU (ssRNA) [Ib_S1_P4E.1_K4.1_C4.1_H4.1_[G2C]_[A4G]_A4.1_F4.1_T4.1],25.1
10,UCUCUUGCUGUAUAUAACUCUCUU (ssRNA) [Id_ii_S1_P3E.2_K3.1_C3.2_[C-2G]_[T-1C]_H3.1_A3.1_F3.1_T3.2_[T9A]_[A10C]],18.8
11,UCUCUUUGUGUAUAUAUUUCUCUU (ssRNA) [Id_ii_S1_P3E.2_K3.1_C3.2_[C-2T]_[T-1G]_H3.1_A3.1_F3.1_T3.2_[A10T]],8.9
12,UCUCUUUCUGUAUAUAAUUCUCUU (ssRNA) [Id_ii_S1_P3E.2_K3.1_C3.2_[C-2T]_[T-1C]_H3.1_A3.1_F3.1_T3.2_[T9A]_[A10T]],4.37
13,UCUCUUUGUGUAUAUAUCUCUCUU (ssRNA) [Id_ii_S1_P3E.2_K3.1_C3.2_[C-2T]_[T-1G]_H3.1_A3.1_F3.1_T3.2_[A10C]],7.14
14,UCUCUUGGUGUAUAUAUUUCUCUU (ssRNA) [Id_ii_S1_P3E.2_K3.1_C3.2_[C-2G]_[T-1G]_H3.1_A3.1_F3.1_T3.2_[A10T]],15.2
15,UCUCUUUCUGUAUAUACAUCUCUU (ssRNA) [Id_ii_S1_P3E.2_K3.1_C3.2_[C-2T]_[T-1C]_H3.1_A3.1_F3.1_T3.2_[T9C]],23
16,UCUCUUUUUGUAUAUAAUUCUCUU (ssRNA) [Id_ii_S1_P3E.2_K3.1_C3.2_[C-2T]_H3.1_A3.1_F3.1_T3.2_[T9A]_[A10T]],8.27
17,UCUCUUGGUGUAUAUAUGUCUCUU (ssRNA) [Id_ii_S1_P3E.2_K3.1_C3.2_[C-2G]_[T-1G]_H3.1_A3.1_F3.1_T3.2_[A10G]],16.4
18,UCUCUUGCUGUAUAUACCUCUCUU (ssRNA) [Id_ii_S1_P3E.2_K3.1_C3.2_[C-2G]_[T-1C]_H3.1_A3.1_F3.1_T3.2_[T9C]_[A10C]],17.3
19,UCUCUUUCUGUAUAUACUUCUCUU (ssRNA) [Id_ii_S1_P3E.2_K3.1_C3.2_[C-2T]_[T-1C]_H3.1_A3.1_F3.1_T3.2_[T9C]_[A10T]],9.31
20,UCUCUUGUUGUAUAUAUUUCUCUU (ssRNA) [Id_ii_S1_P3E.2_K3.1_C3.2_[C-2G]_H3.1_A3.1_F3.1_T3.2_[A10T]],8

row,Binder,Kd [nM]
1,UCUCUUUCUGUAUAUAACUCUCUU (ssRNA) [Id_ii_S1_P3E.2_K3.1_C3.2_[C-2T]_[T-1C]_H3.1_A3.1_F3.1_T3.2_[T9A]_[A10C]],5.55
2,UCUCUUUGUGUAUAUAUGUCUCUU (ssRNA) [Id_ii_S1_P3E.2_K3.1_C3.2_[C-2T]_[T-1G]_H3.1_A3.1_F3.1_T3.2_[A10G]],8.9
3,UCUCUUAGUGUAUUAUCUCUU (ssRNA) [Ib_S1_P4E.1_K4.1_C4.1_H4.1_[T1A]_[A4G]_A4.1_F4.1_T4.1],64
4,UCUCUUGCUGUAUAUAUGUCUCUU (ssRNA) [Id_ii_S1_P3E.2_K3.1_C3.2_[C-2G]_[T-1C]_H3.1_A3.1_F3.1_T3.2_[A10G]],12.4
5,UCUCUUUAUGUAUAUACUUCUCUU (ssRNA) [Id_ii_S1_P3E.2_K3.1_C3.2_[C-2T]_[T-1A]_H3.1_A3.1_F3.1_T3.2_[T9C]_[A10T]],15.1
6,UCUCUUUCUGUAUAUAAGUCUCUU (ssRNA) [Id_ii_S1_P3E.2_K3.1_C3.2_[C-2T]_[T-1C]_H3.1_A3.1_F3.1_T3.2_[T9A]_[A10G]],6.84
7,UCUCUUUUUGUAUAUACUUCUCUU (ssRNA) [Id_ii_S1_P3E.2_K3.1_C3.2_[C-2T]_H3.1_A3.1_F3.1_T3.2_[T9C]_[A10T]],10.2
8,UCUCUUUCUGUAUAUAAAUCUCUU (ssRNA) [Id_ii_S1_P3E.2_K3.1_C3.2_[C-2T]_[T-1C]_H3.1_A3.1_F3.1_T3.2_[T9A]],8.49
9,UCUCUUUGUGUAUAUAAUUCUCUU (ssRNA) [Id_ii_S1_P3E.2_K3.1_C3.2_[C-2T]_[T-1G]_H3.1_A3.1_F3.1_T3.2_[T9A]_[A10T]],9.46
10,UCUCUUUUUGUAUAUAGCUCUCUU (ssRNA) [Id_ii_S1_P3E.2_K3.1_C3.2_[C-2T]_H3.1_A3.1_F3.1_T3.2_[T9G]_[A10C]],5.32
11,UCUCUUGCUGUAUAUACUUCUCUU (ssRNA) [Id_ii_S1_P3E.2_K3.1_C3.2_[C-2G]_[T-1C]_H3.1_A3.1_F3.1_T3.2_[T9C]_[A10T]],31.8
12,UCUCUUGGUGUAUAUAAUUCUCUU (ssRNA) [Id_ii_S1_P3E.2_K3.1_C3.2_[C-2G]_[T-1G]_H3.1_A3.1_F3.1_T3.2_[T9A]_[A10T]],16.3
13,UCUCUUGCUGUAUAUAUCUCUCUU (ssRNA) [Id_ii_S1_P3E.2_K3.1_C3.2_[C-2G]_[T-1C]_H3.1_A3.1_F3.1_T3.2_[A10C]],12.6
14,UCUCUUUCUGUAUAUAGCUCUCUU (ssRNA) [Id_ii_S1_P3E.2_K3.1_C3.2_[C-2T]_[T-1C]_H3.1_A3.1_F3.1_T3.2_[T9G]_[A10C]],3.8
15,UCUCUUGUUGUAUAUACCUCUCUU (ssRNA) [Id_ii_S1_P3E.2_K3.1_C3.2_[C-2G]_H3.1_A3.1_F3.1_T3.2_[T9C]_[A10C]],20.1
16,UCUCUUUCUGUAUAUAUUUCUCUU (ssRNA) [Id_ii_S1_P3E.2_K3.1_C3.2_[C-2T]_[T-1C]_H3.1_A3.1_F3.1_T3.2_[A10T]],5.64
17,UCUCUUUAUGUAUAUAUCUCUCUU (ssRNA) [Id_ii_S1_P3E.2_K3.1_C3.2_[C-2T]_[T-1A]_H3.1_A3.1_F3.1_T3.2_[A10C]],9.65
18,UCUCUUUGUGUAUAUAGUUCUCUU (ssRNA) [Id_ii_S1_P3E.2_K3.1_C3.2_[C-2T]_[T-1G]_H3.1_A3.1_F3.1_T3.2_[T9G]_[A10T]],6.29
